Experimental data as given in paper PMC3026963.

Biological target: protein kinase CK2 catalytic subunit α (human) (UniProt P68400)
Sequence (P68400 whole entry): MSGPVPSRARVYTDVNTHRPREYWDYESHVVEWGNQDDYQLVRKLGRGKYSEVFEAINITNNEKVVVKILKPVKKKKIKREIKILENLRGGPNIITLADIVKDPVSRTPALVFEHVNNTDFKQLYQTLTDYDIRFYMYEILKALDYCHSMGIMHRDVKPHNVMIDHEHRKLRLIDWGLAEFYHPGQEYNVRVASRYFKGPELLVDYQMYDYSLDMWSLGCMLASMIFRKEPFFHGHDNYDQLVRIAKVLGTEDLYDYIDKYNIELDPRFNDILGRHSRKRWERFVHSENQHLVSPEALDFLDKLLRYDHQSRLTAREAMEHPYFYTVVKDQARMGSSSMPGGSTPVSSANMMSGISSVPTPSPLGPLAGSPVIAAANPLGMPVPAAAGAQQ

Chain of β-peptide(181–203) (P67870 181-203): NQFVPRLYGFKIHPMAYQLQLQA

Kd: 8.45 µM
Substance: β-peptide(181–203) (from UniProt P67870 181-203)
